# Laboratory results from article PMC12675262 (Journal of Experimental Botany, 2025).
# B1: Synechocystis sp. PCC 6803 fructose-1,6-bisphosphatase (FBPase; slr0952) (enzyme, UniProt P74324 1-347, looked up)
# chain: MTVSEIHIPNSLLDRDCTTLSRHVLQQLNSFGADAQDLSAIMNRIALAGKLIARRLSRAGLMADVLGFTGETNVQGESVKKMDVFANDVFISVFKQSGLVCRLASEEMEKPYYIPENCPIGRYTLLYDPIDGSSNVDINLNVGSIFAIRQQEGDDLDGSASDLLANGDKQIAAGYILYGPSTILVYSLGSGVHSFILDPSLGEFILAQENIRIPNHGPIYSTNEGNFWQWDEALRDYTRYVHRHEGYTARYSGALVGDIHRILMQGGVFLYPGTEKNPDGKLRLLYETAPLAFLVEQAGGRASDGQKRLLDLIPSKLHQRTPAIIGSAEDVKLVESFISDHKQRQGN
# Target: the molecule itself
# Experiment: SEC
protein,measurement,value
B1,stoichiometry N,4
